The target in series [1] is Metallo-beta-lactamase (Escherichia coli) (UniProt Q5U7L7). The series can be described thus: Activity at Escherichia coli DH5alpha metallo-beta-lactamase VIM-2 assessed as compound hydrolysis per mg of total periplasmic protein by spectrometry.
Series [2] relates to Escherichia coli. The series can be described thus: Activity at Escherichia coli DH5alpha metallo-beta-lactamase VIM-11 assessed as compound hydrolysis per mg of total periplasmic protein by spectrometry.
In series [3] the test system is Escherichia coli. Kind of series: Antimicrobial activity Escherichia coli DH5alpha expressing metallo-beta-lactamase VIM-11 by agar macrodilution method. Format: functional.
For series [4], the system named is Escherichia coli. Kind of series: Antimicrobial activity Escherichia coli DH5alpha expressing beta lactamase VIM-2 by agar macrodilution method. Format: functional.
The subject of series [5] is Pseudomonas aeruginosa. Kind of series: Ratio of Kcat to Km for Pseudomonas aeruginosa COL-1 metallo-beta lactamase VIM-2 over Kcat to Km for Pseudomonas aeruginosa M5109 metallo-beta-lactamase VIM-11.
Series [6] deals with Escherichia coli. The series can be described thus: Antimicrobial activity Escherichia coli DH5alpha harboring bacteriophage T4 plasmid alpha omega by agar macrodilution method. Format: functional.
In series [7] the test system is CO[C@@]1(NC(=O)Cc2cccs2)C(=O)N2C(C(=O)O)=C(COC(N)=O)CS[C@@H]21. The series can be described thus: (§1) Ratio of Kcat to Km for Pseudomonas aeruginosa COL-1 metallo-beta lactamase VIM-2.
For series [8], the system named is C[C@@H](O)[C@H]1C(=O)N2C(C(=O)O)=C(S[C@@H]3CN[C@H](C(=O)N(C)C)C3)[C@H](C)[C@H]12. The description is as §1.
Series [9] relates to CC(C)(O/N=C(\C(=O)N[C@@H]1C(=O)N2C(C(=O)[O-])=C(C[n+]3ccccc3)CS[C@H]12)c1csc(N)n1)C(=O)O. The series is described as §1.
Series [10] deals with CC1(C)S[C@@H]2[C@H](NC(=O)[C@H](N)c3ccccc3)C(=O)N2[C@H]1C(=O)O. The series is described as §1.
The subject of series [11] is CO/N=C(\C(=O)N[C@@H]1C(=O)N2C(C(=O)O)=C(COC(C)=O)CS[C@H]12)c1csc(N)n1. The series is described as §1.
Series [12] deals with CC(=O)OCC1=C(C(=O)O)N2C(=O)[C@@H](NC(=O)Cc3cccs3)[C@H]2SC1. The series is described as §1.
The test system of series [13] is O=C(Cc1cccs1)N[C@@H]1C(=O)N2C(C(=O)O)=C(/C=C/c3ccc([N+](=O)[O-])cc3[N+](=O)[O-])CS[C@H]12. Described as §1.
Series [14] deals with CO/N=C(\C(=O)N[C@@H]1C(=O)N2C(C(=O)O)=C(COC(N)=O)CS[C@H]12)c1ccco1. The series is described as §1.
Series [15] concerns CO[C@@]1(NC(=O)Cc2cccs2)C(=O)N2C(C(=O)O)=C(COC(N)=O)CS[C@@H]21. The series can be described thus: (§2) Activity at Pseudomonas aeruginosa COL-1 metallo-beta lactamase VIM-2 by spectrometry.
Series [16] has as its system C[C@@H](O)[C@H]1C(=O)N2C(C(=O)O)=C(S[C@@H]3CN[C@H](C(=O)N(C)C)C3)[C@H](C)[C@H]12. The series is described as §2.
For series [17], the system named is CC(C)(O/N=C(\C(=O)N[C@@H]1C(=O)N2C(C(=O)[O-])=C(C[n+]3ccccc3)CS[C@H]12)c1csc(N)n1)C(=O)O. The description is as §2.
Series [18] concerns CC1(C)S[C@@H]2[C@H](NC(=O)[C@H](N)c3ccccc3)C(=O)N2[C@H]1C(=O)O. The series is described as §2.
Series [19] concerns CO/N=C(\C(=O)N[C@@H]1C(=O)N2C(C(=O)[O-])=C(C[n+]3cccc4c3CCC4)CS[C@H]12)c1csc(N)n1. The series is described as §2.
For series [20], the system named is CO/N=C(\C(=O)N[C@@H]1C(=O)N2C(C(=O)O)=C(COC(C)=O)CS[C@H]12)c1csc(N)n1. The description is as §2.
Series [21] relates to CC(=O)OCC1=C(C(=O)O)N2C(=O)[C@@H](NC(=O)Cc3cccs3)[C@H]2SC1. The series is described as §2.
Series [22] concerns O=C(Cc1cccs1)N[C@@H]1C(=O)N2C(C(=O)O)=C(/C=C/c3ccc([N+](=O)[O-])cc3[N+](=O)[O-])CS[C@H]12. The description is as §2.
The subject of series [23] is CO/N=C(\C(=O)N[C@@H]1C(=O)N2C(C(=O)O)=C(COC(N)=O)CS[C@H]12)c1ccco1. The series is described as §2.
Series [24] concerns CO[C@@]1(NC(=O)Cc2cccs2)C(=O)N2C(C(=O)O)=C(COC(N)=O)CS[C@@H]21. The series can be described thus: (§3) Ratio of Kcat to Km for Pseudomonas aeruginosa M5109 metallo-beta-lactamase VIM-11.
Series [25] concerns C[C@@H](O)[C@H]1C(=O)N2C(C(=O)O)=C(S[C@@H]3CN[C@H](C(=O)N(C)C)C3)[C@H](C)[C@H]12. The description is as §3.
The test system of series [26] is CC(C)(O/N=C(\C(=O)N[C@@H]1C(=O)N2C(C(=O)[O-])=C(C[n+]3ccccc3)CS[C@H]12)c1csc(N)n1)C(=O)O. The series is described as §3.
The test system of series [27] is CC1(C)S[C@@H]2[C@H](NC(=O)[C@H](N)c3ccccc3)C(=O)N2[C@H]1C(=O)O. The description is as §3.
Series [28] has as its system CO/N=C(\C(=O)N[C@@H]1C(=O)N2C(C(=O)[O-])=C(C[n+]3cccc4c3CCC4)CS[C@H]12)c1csc(N)n1. The description is as §3.
Series [29] relates to CO/N=C(\C(=O)N[C@@H]1C(=O)N2C(C(=O)O)=C(COC(C)=O)CS[C@H]12)c1csc(N)n1. The series is described as §3.
In series [30] the test system is CC(=O)OCC1=C(C(=O)O)N2C(=O)[C@@H](NC(=O)Cc3cccs3)[C@H]2SC1. Described as §3.
The subject of series [31] is O=C(Cc1cccs1)N[C@@H]1C(=O)N2C(C(=O)O)=C(/C=C/c3ccc([N+](=O)[O-])cc3[N+](=O)[O-])CS[C@H]12. The series is described as §3.
Series [32] concerns CO/N=C(\C(=O)N[C@@H]1C(=O)N2C(C(=O)O)=C(COC(N)=O)CS[C@H]12)c1ccco1. Described as §3.
For series [33], the system named is CO[C@@]1(NC(=O)Cc2cccs2)C(=O)N2C(C(=O)O)=C(COC(N)=O)CS[C@@H]21. The series can be described thus: (§4) Activity at Pseudomonas aeruginosa M5109 metallo-beta-lactamase VIM-11 by spectrometry.
The subject of series [34] is C[C@@H](O)[C@H]1C(=O)N2C(C(=O)O)=C(S[C@@H]3CN[C@H](C(=O)N(C)C)C3)[C@H](C)[C@H]12. The series is described as §4.
Series [35] has as its system CC(C)(O/N=C(\C(=O)N[C@@H]1C(=O)N2C(C(=O)[O-])=C(C[n+]3ccccc3)CS[C@H]12)c1csc(N)n1)C(=O)O. The series is described as §4.
The subject of series [36] is CC1(C)S[C@@H]2[C@H](NC(=O)[C@H](N)c3ccccc3)C(=O)N2[C@H]1C(=O)O. The description is as §4.
Series [37] concerns CO/N=C(\C(=O)N[C@@H]1C(=O)N2C(C(=O)[O-])=C(C[n+]3cccc4c3CCC4)CS[C@H]12)c1csc(N)n1. The series is described as §4.
Series [38] has as its system CO/N=C(\C(=O)N[C@@H]1C(=O)N2C(C(=O)O)=C(COC(C)=O)CS[C@H]12)c1csc(N)n1. The series is described as §4.
The subject of series [39] is CC(=O)OCC1=C(C(=O)O)N2C(=O)[C@@H](NC(=O)Cc3cccs3)[C@H]2SC1. The description is as §4.
The subject of series [40] is O=C(Cc1cccs1)N[C@@H]1C(=O)N2C(C(=O)O)=C(/C=C/c3ccc([N+](=O)[O-])cc3[N+](=O)[O-])CS[C@H]12. The description is as §4.
Series [41] deals with CO/N=C(\C(=O)N[C@@H]1C(=O)N2C(C(=O)O)=C(COC(N)=O)CS[C@H]12)c1ccco1. Described as §4.

≈ marks a conversion by molar mass, not a printed value.

Turning to `CC(C)(O/N=C(\C(=O)N[C@@H]1C(=O)N2C(C(=O)[O-])=C(C[n+]3ccccc3)CS[C@H]12)c1csc(N)n1)C(=O)O` [CEFTAZIDIME], the Activity in [1] is 5.5 µmol; in [2], 0.9 µmol. Also, the MIC was 8 µg/mL (≈ 14.6 µM) in series [3], 8 µg/mL (≈ 14.6 µM) in series [4] and 0.125 µg/mL (≈ 0.229 µM) in series [6]. In addition, the kcat/Km ratio in [5] was found to be 4.06.
On to `CO/N=C(\C(=O)N[C@@H]1C(=O)N2C(C(=O)O)=C(COC(N)=O)CS[C@H]12)c1ccco1` [CEFUROXIME], for which the values for the MIC in series [3], in series [4] and in [6] were 64 µg/mL (≈ 151 µM), 128 µg/mL (≈ 302 µM) and 4 µg/mL (≈ 9.43 µM), respectively. Besides, the kcat/Km ratio in series [5] worked out at 0.89.
In the case of `CC(=O)OCC1=C(C(=O)O)N2C(=O)[C@@H](NC(=O)Cc3cccs3)[C@H]2SC1` [CEPHALOTHIN], the Activity amounted to 141 µmol in [1] and 5.4 µmol in series [2]. Moreover, the MIC in series [3] turned out to be 64 µg/mL (≈ 161 µM); in series [4], 64 µg/mL (≈ 161 µM); in [6] it was 4 µg/mL (≈ 10.1 µM). Moreover, the kcat/Km ratio in [5] turned out to be 1.12.
With `C[C@@H](O)[C@H]1C(=O)N2C(C(=O)O)=C(SCCNC=N)C[C@H]12` [IMIPENEM ANHYDROUS], the Activity in series [1] is 27 µmol; in series [2], 1.3 µmol. The values for the MIC in [3] and in series [4] were 0.5 µg/mL (≈ 1.67 µM) and 1 µg/mL (≈ 3.34 µM), respectively. In addition, the kcat/Km ratio in series [5] stood at 0.67.
Regarding `C[C@@H](O)[C@H]1C(=O)N2C(C(=O)O)=C(S[C@@H]3CN[C@H](C(=O)N(C)C)C3)[C@H](C)[C@H]12` [MEROPENEM], the MIC in [3] turned out to be 0.06 µg/mL (≈ 0.156 µM); in [4], 0.125 µg/mL (≈ 0.326 µM); in series [6], 0.03 µg/mL (≈ 0.0782 µM). Also, in series [5], the kcat/Km ratio stood at 1.
As to `CC1(C)S[C@@H]2[C@H](NC(=O)Cc3ccccc3)C(=O)N2[C@H]1C(=O)O` [PENICILLIN G], the MIC in series [3] and in series [4] was 128 µg/mL (≈ 383 µM) in each case.
With “Metallo-beta-lactamase VIM-2 (Pseudomonas aeruginosa) (from UniProt D1MEN9)”, the kcat/Km is 1 ×10⁶ /M/s in series [7]; 1.4 ×10⁶ /M/s in series [8]; 3.2 ×10⁶ /M/s in [9]; 2.2 ×10⁶ /M/s in series [10]; 4.6 ×10⁶ /M/s in [11]; 1.6 ×10⁶ /M/s in series [12]. In addition, the kcat/Km in [13] was determined as 1.5 ×10⁶ /M/s; in series [14] it was 5.5 ×10⁶ /M/s. Moreover, the kcat (as a rule, the number of substrate molecules converted per active site and unit of time at saturation) in series [15] stood at 10 s⁻¹; in series [16], 3.5 s⁻¹; in series [19], 48.1 s⁻¹; in [20] it was 61 s⁻¹; in series [21], 96.4 s⁻¹; in series [22], 206 s⁻¹. Moreover, the kcat in series [23] came to 30.5 s⁻¹. Also, the Km (commonly the substrate concentration at which the rate is half of its maximum) in series [16] was found to be 24.5 µM; in series [17] it was 88.2 µM; in [18] it was 136 µM; in series [19], 171 µM; in [20], 13.4 µM; in [21] it was 6.2 µM. Moreover, the Km is 13.8 µM in series [22] and 5.5 µM in series [23].
For “Metallo-beta-lactamase VIM-11 (Pseudomonas aeruginosa) (from UniProt C7DTR7)”, the kcat/Km in series [24] was determined as 8.6 ×10⁶ /M/s; in series [25], 1.4 ×10⁶ /M/s; in series [26] it was 1.3 ×10⁶ /M/s; in [27], 1.8 ×10⁶ /M/s; in series [28] it was 5.6 ×10⁶ /M/s; in series [29], 3.6 ×10⁶ /M/s. The figures for the kcat/Km in [30], in series [31] and in [32] were 1.8 ×10⁶ /M/s, 1.6 ×10⁶ /M/s and 4.9 ×10⁶ /M/s, respectively. Moreover, the Km amounted to 7.4 µM in series [33]; 22.7 µM in series [34]; 110 µM in series [35]; 109 µM in series [36]; 183 µM in series [37]; 11.4 µM in [38]. Besides, the Km in series [39] worked out at 4.5 µM; in series [40], 8.2 µM; in series [41], 5.5 µM. Besides, the kcat worked out at 6.4 s⁻¹ in [33]; 3.2 s⁻¹ in [34]; 14 s⁻¹ in series [35]; 190 s⁻¹ in [36]; 102 s⁻¹ in series [37]; 41.3 s⁻¹ in [38]. Moreover, the kcat worked out at 81 s⁻¹ in series [39], 129 s⁻¹ in series [40] and 27 s⁻¹ in series [41].

These data come from ChEMBL document CHEMBL1255351, “Biochemical characterization of metallo-beta-lactamase VIM-11 from a Pseudomonas aeruginosa clinical strain” (2008).
